The values below come from US20210268016A1 (YALE UNIVERSITY, published 2021).

In the experiment the target is biotinylated Aβ1-42 oligomers (Aßo) prepared from biotinylated synthetic Aβ1-42 peptide (human). The experiment in a line: biolayer interferometry, biotinylated Aßo on streptavidin sensor. On the technique in general: BLI is a label-free optical method that tracks binding on a fibre tip over time.

B1: recombinant full-length human PrP^C (AA23-231) (receptor)
chain: not shown
Take B1: the binding result is reported as “binds”.
